Results on four molecules are retold here after patent US20220033501A1 (SHANGHAI PHARMAEXPLORER, published 2022).

Positions count from the first letter of the chain named.

The target in assay [1] is T1, monkey TIM-3 on CHOK1 stable cell line (CHOK1-cTIM-3) (monkey).
T1 chain: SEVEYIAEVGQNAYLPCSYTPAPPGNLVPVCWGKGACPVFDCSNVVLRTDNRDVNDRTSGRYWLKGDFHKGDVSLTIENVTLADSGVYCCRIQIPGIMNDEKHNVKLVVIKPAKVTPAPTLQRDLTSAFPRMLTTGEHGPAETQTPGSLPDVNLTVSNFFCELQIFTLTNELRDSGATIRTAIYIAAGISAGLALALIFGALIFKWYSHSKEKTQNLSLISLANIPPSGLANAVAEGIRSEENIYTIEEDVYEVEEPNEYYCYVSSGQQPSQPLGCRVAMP
In words: FACS, CHOK1-cTIM-3 cells, 1.6 nM antibody. The text has this: (§1) The pIRES plasmid containing the full-length nucleotide sequence encoding human TIM-3 as described in Example 1 was transfected into CHOK1 cell line to obtain a CHOK1 stable cell line containing human TIM-3 (herein referred to as CHOK1-hTIM-3 stable cell line). The pIRES plasmid containing the full-length gene of monkey TIM-3 was transfected into CHOK1 cell line to construct a CHOK1 stable cell line containing monkey TIM-3 (herein referred to as CHOK1-cTIM-3 stable cell line). The CHOK1-hTIM-3 stable cell line and CHOK1-cTIM-3 stable cell line were expanded to a confluence of 90% in a T-75 cell culture flask. The medium was aspirated, and the cells were washed with HBSS (Hanks' Balanced Salt Solution) 1-2 times, and then treated with an enzyme-free cell dissociation solution (Versene solution: Life technology) and the cells were collected. The cells were washed with HBSS buffer for 1-2 times. After counted, the cells were diluted with HBSS to 1-2×10⁶ cells per ml, added with 1% goat serum blocking solution, incubated on ice for 20-30 minutes, and then washed with HBSS by centrifugation 2 times. The collected cells were suspended in the FACS buffer (HBSS+1% BSA) to 2×10⁶ cells/ml, added as 100 microliters per well to a 96-well FACS reaction plate, added with 100 microliters per well of the antibody sample to be tested, incubated on ice for 1-2 hours. The plate was washed twice with the FACS buffer by centrifugation, added with 100 microliters of fluorescent (Alexa 488)-labeled secondary antibodies per well, and incubated on ice for 0.5-1.0 hours. The plate was washed 2-3 times with FACS buffer by centrifugation, added with 100 μl fixative solution (4% Paraformaldehyde) per well to suspend the cells. 5-10 minutes later, it was washed 1-2 times with FACS buffer by centrifugation. The cells were suspended with 100 microliters of FACS buffer, FACS (FACSCalibur, BD) was used for detection and the results were analyzed. The results are shown in FIGS. 7 and 8, Tables 7 and 8, wherein the IgG control is rat IgG, and the data in the table are the average fluorescence intensity values of the cell populations measured by MFI.
For orientation: Flow cytometry measures light scatter and fluorescence of single cells or particles in a stream.

In assay [2] the target is T1, monkey TIM-3 on CHOK1 stable cell line …. The experiment in a line: FACS, CHOK1-cTIM-3 cells, 40 nM antibody.
Description: as §1

The target in assay [3] is T2, TIM-3 protein on human peripheral blood mononuclear lymphocytes (PBMC) (human, UniProt Q8TDQ0 22-301).
T2 sequence: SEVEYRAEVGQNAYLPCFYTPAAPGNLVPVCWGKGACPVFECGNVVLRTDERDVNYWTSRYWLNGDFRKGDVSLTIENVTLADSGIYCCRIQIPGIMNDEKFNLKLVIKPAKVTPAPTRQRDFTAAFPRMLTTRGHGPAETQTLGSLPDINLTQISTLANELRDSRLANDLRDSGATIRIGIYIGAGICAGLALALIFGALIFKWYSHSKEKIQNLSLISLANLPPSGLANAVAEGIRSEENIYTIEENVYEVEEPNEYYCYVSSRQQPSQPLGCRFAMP
In words: cell-based or functional assay.

Assay [4] addresses T1, monkey TIM-3 on CHOK1 stable cell line …. The experiment in a line: FACS, CHOK1-cTIM-3 cells, 0.064 nM antibody.
Description: as §1

Assay [5] shares this target. In words: FACS, CHOK1-cTIM-3 cells, 0 nM antibody.
Description: as §1

For assay [6] the target is unchanged. The experiment in a line: FACS, CHOK1-cTIM-3 cells, 0.32 nM antibody.
Description: as §1

Assay [7] shares this target. The experiment in a line: FACS, CHOK1-cTIM-3 cells, 0.013 nM antibody.
Description: as §1

Assay [8] shares this target. In words: FACS, CHOK1-cTIM-3 cells, 200 nM antibody.
Description: as §1

The target is the same in assay [9]. The experiment in a line: FACS, CHOK1-cTIM-3 cells, 8 nM antibody.
Description: as §1

B1: 215A8F2 TIM-3 antibody purified from hybridoma supernatant (chimeric antibody of Example 2) (antibody, V domains shown)
VH: QVQLQQWGAGLLKPSETLSLTCTVYGGSFSGYYWNWIRQPPGKGLEWLGEINHSGSTNYNPSLKRRVTISVDTSKNQFSLKLSSVTAADTAVYYCARVYYYGPFDFWGQGTLVTVSS
VL: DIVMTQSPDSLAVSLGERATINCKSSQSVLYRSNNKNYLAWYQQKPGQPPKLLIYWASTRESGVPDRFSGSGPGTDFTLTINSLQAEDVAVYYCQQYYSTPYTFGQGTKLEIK
In turn, B1 gave a Mean fluorescence intensity in assay [1] of 330. The Mean fluorescence intensity in [2] came to 976. Also, in assay [3], the “IFN production; antibody 0.001 µg/ml (4th head as printed), N = 1” value was 782 pg/mL; the “IFN production; antibody 0.001 µg/ml (4th head as printed), N = 2” value worked out at 753 pg/mL; the “IFN production; antibody 0.001 µg/ml (5th head as printed), N = 1” value is 791 pg/mL; the “IFN production; antibody 0.001 µg/ml (5th head as printed), N = 2” value came out at 741 pg/mL. Besides, in [3], the “IFN production; antibody 0.1 µg/ml, N = 1” value stood at 840 pg/mL; the “IFN production; antibody 0.1 µg/ml, N = 2” value was 901 pg/mL; the “IFN production; antibody 1 µg/ml, N = 1” value came out at 1020 pg/mL; the “IFN production; antibody 1 µg/ml, N = 2” value is 1070 pg/mL. Also, in assay [3], the “IFN production; antibody 10 µg/ml, N = 1” value came out at 943 pg/mL and the “IFN production; antibody 10 µg/ml, N = 2” value is 1070 pg/mL. The Mean fluorescence intensity in assay [4] came out at 34.7. In assay [5], this molecule returned a Mean fluorescence intensity of 3.2. Also, in assay [6], the Mean fluorescence intensity was determined as 108. This molecule displayed a Mean fluorescence intensity in assay [7] of 13.6. In assay [8], this molecule yielded a Mean fluorescence intensity of 961. In addition, the Mean fluorescence intensity in assay [9] is 733.

B2: 7A4F10 TIM-3 antibody purified from hybridoma supernatant (chimeric antibody of Example 2) (antibody, V domains shown)
VH: EVQLLESGGGLVQPGGSLRLSCAASGFTFRTHLISWVRQAPGKGLEWVAAITGSGGSTYYADSVKGRFIISRDNSKNTLFLQMNSLRAEDTAVYYCAKDGGSGSYDDFWGQGTLVTVSS
VL: ETVLTQSPVTLSLSPGERATLSCRASQSVGSYLAWYQQKPGQAPRLLIYDASNRATGIPARFSGSGSGTDFTLTISSLEPEDFAVYYCQQRSNWPPTFGQGTKVEIK
The molecule B2 gave a Mean fluorescence intensity in [1] of 29.1. The Mean fluorescence intensity in assay [2] was found to be 163. Besides, in [3], the “IFN production; antibody 0.001 µg/ml (4th head as printed), N = 1” value is 672 pg/mL; the “IFN production; antibody 0.001 µg/ml (4th head as printed), N = 2” value is 719 pg/mL; the “IFN production; antibody 0.001 µg/ml (5th head as printed), N = 1” value was 666 pg/mL; the “IFN production; antibody 0.001 µg/ml (5th head as printed), N = 2” value was 756 pg/mL. In addition, in [3], the “IFN production; antibody 0.1 µg/ml, N = 1” value turned out to be 758 pg/mL; the “IFN production; antibody 0.1 µg/ml, N = 2” value was 873 pg/mL; the “IFN production; antibody 1 µg/ml, N = 1” value was 1010 pg/mL; the “IFN production; antibody 1 µg/ml, N = 2” value came to 1160 pg/mL. For the same molecule, in [3], the “IFN production; antibody 10 µg/ml, N = 1” value came out at 848 pg/mL and the “IFN production; antibody 10 µg/ml, N = 2” value came out at 1010 pg/mL. Besides, the Mean fluorescence intensity in assay [4] was 5.9. Moreover, the Mean fluorescence intensity in [5] was 3.2. In assay [6], this molecule returned a Mean fluorescence intensity of 11.3. Moreover, the Mean fluorescence intensity in [7] is 4.1. This molecule yielded a Mean fluorescence intensity in assay [8] of 147. In assay [9], the Mean fluorescence intensity turned out to be 90.

B3: 18D2H2 TIM-3 antibody purified from hybridoma supernatant (chimeric antibody of Example 2) (antibody, V domains shown)
VH: EVQLVESGGDLVQPGGSLRLSCAASGFTFSTYWMTWVRQAPGRGLEWVANIKQDGSAKYYVDSVKGRFTLSRDDAKNSLYLQMNSLRAEDTAVYYCARGSNWFDYWGQGTLVTVSS
VL: ETVMTQSPATLSVSPGERATLSCRANQNVYSNLAWYQQKPGQAPRLLIYDASTRATGFPARFSGSGSGTEFTLTISSLQSEDFAVYYCQQYNNWPLTFGGGTKVEIK
Take B3: the Mean fluorescence intensity is 35.8 in [1]; 186 in assay [2]; 6.9 in [4]; 3.2 in assay [5]; 14.4 in assay [6]; 4.3 in assay [7]. Further, the Mean fluorescence intensity in assay [8] worked out at 203; in assay [9], 92.2.

B4: 57F4E5 TIM-3 antibody purified from hybridoma supernatant (chimeric antibody of Example 2) (antibody, V domains shown)
VH: EVQLVESGGGLVQPGGSLRLSCAASGFTFSSYWMSWVRQAPGKGLEWVANIKQDGSEKYYVDSVKGRFTISRDSAKNSLYLQMNSLRAEDTAMYFCARDSNFFDYWGQGTLVTVSS
VL: B3 VL with N26S, N28S, Y30S, Q38R, D50F, A51S, F58I
With B4, the Mean fluorescence intensity stood at 460 in assay [1]; 699 in [2]; 59.6 in assay [4]; 3.2 in [5]; 185 in assay [6]; 22.2 in assay [7]. Besides, the figures for the Mean fluorescence intensity in assay [8] and in assay [9] were 675 and 704, respectively.
